Test [1] concerns the target tTF219 (truncated Tissue Factor, extracellular domain of mature human Tissue Factor) (human).
The target of test [2] is IgG-H6-N'-cys-tTF219 (human).
In test [3] the target is H6-N'-cys-tTF219 (human).
Test [4] concerns the target H6-N'-cys-tTF219 dimer (human).
The target in test [5] is H6-tTF221-cys-C' dimer (human).
Test [6] concerns the target tTF219 (truncated Tissue Factor, extracellular domain of mature human Tissue Factor) (human). This is another data set of the same source.
Test [7] shares this target. This is another data set of the same source.
The target is the same in test [8]. This is another data set of the same source.
Test [9] addresses tTF221-cys-C' (human).
In test [10] the target is H6-tTF220-cys-C' (human).
Test [11] addresses tTF220-cys-C' (human).
Test [12] deals with H6-tTF221-cys-C' (human).
Test [13] addresses tTF219 (truncated Tissue Factor, extracellular domain of mature human Tissue Factor) (human). This is another data set of the same source.
The target of test [14] is H6-N'-cys-tTF219 (human). This is another data set of the same source.
The target in test [15] is H6-tTF219-cys-C' (human).
The target of test [16] is Factor VII in Proplex T.
The target of test [17] is T1, Factor VIIa (recombinant human) (human).
T1 chain 1: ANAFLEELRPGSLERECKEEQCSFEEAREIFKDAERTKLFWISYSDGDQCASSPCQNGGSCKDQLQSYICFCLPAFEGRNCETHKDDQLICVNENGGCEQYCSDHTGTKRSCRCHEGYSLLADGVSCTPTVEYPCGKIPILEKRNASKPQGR
T1 chain 2: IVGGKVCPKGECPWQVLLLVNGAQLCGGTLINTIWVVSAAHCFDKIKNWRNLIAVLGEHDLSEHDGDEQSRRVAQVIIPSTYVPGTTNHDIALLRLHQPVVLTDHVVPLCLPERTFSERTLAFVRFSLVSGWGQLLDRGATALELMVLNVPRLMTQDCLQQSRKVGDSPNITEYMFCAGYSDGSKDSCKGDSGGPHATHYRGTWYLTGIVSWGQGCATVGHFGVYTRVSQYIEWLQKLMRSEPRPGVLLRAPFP
Nature of the test: cell-based or functional assay.

“And” between values parts separate entries of the source, which are not always exact repeats. Equal entries are not always repeated. Where two headings read alike, the source gives them in different places.

Regarding B21-2/10H10 bispecific antibody, the tTF concentration at which plasma coagulated in 50 seconds in test [1] was 1 nM; in [2] it was 5 nM; in test [3], 1 nM; in test [4], 100 pM and 200 pM; in test [5] it was 4 nM; in test [6], 100 pM and 200 pM. The tTF concentration at which plasma coagulated in 50 seconds in test [8] was 3 nM; in [9] it was 500 pM; in test [10] it was 500 pM; in test [11], 500 pM; in test [12] it was 500 pM; in test [13], 500 pM. Moreover, the tTF concentration at which plasma coagulated in 50 seconds in test [14] and in [15] was 3 nM in each case. This molecule yielded a coagulation inducing activity against the unconjugated form in test [2] of 5 fold reduced. Moreover, the clotting time of mouse plasma on A20 cells in test [7] amounted to 36 s.

IgG-H6-N'-cys-tTF219: the conversion of Factor X to Xa (chromogenic substrate S-2765, OD 409 nm) (fold less active) in [16] amounted to 2.

B1: tTF219 (truncated Tissue Factor, extracellular domain of mature human Tissue Factor) (receptor)
chain: GSGTTNTVAAYNLTWKSTNFKTILEWEPKPVNQVYTVQISTKSGDWKSKCFYTTDTECDLTDEIVKDVKQTYLARVFSYPAGNVESTGSAGEPLYENSPEFTPYLETNLGQPTIQSFEQVGTKVNVTVEDERTLVRRNNTFLSLRDVFGKDLIYTLYYWKSSSSGKKTAKTNTNEFLIDVDKGENYCFSVQAVIPSRTVNRKSTDSPVECMGQEKGEFRE
In the case of B1, the “coagulation-inducing potency of cell-associated tTF219 with added Factor VIIa” value in [17] is ~100 fold.
